Where a chain is given by its changes, count along the chain named. Names may count otherwise.
T1: MsEgtE (Mycolicibacterium smegmatis, UniProt A0R5M7)
T1 construct: gene egtE; full-length ORF, pET28a N-terminal hexa-histidine tag, E. coli BL21 (DE3); homodimer (~76 kDa by SEC, predicted 78 kDa)
T1 sequence (A0R5M7 1-371): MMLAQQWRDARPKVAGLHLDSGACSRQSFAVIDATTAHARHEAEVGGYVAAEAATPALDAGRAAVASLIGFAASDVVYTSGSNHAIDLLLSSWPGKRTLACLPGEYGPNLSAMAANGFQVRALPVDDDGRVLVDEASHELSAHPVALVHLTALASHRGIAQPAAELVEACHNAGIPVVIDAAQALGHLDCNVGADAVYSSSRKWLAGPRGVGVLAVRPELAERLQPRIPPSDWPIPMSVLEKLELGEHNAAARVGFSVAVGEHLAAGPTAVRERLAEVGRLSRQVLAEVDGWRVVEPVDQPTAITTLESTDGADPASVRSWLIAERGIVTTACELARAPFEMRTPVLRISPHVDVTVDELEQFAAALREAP

B1: MsEgtE (Mycolicibacterium smegmatis MC2 155) (protein)
chain: T1 sequence (A0R5M7 1-371)
notes: full-length ORF, pET28a N-terminal hexa-histidine tag, E. coli BL21 (DE3); homodimer (~76 kDa by SEC, predicted 78 kDa)
B2: ergothioneine-biosynthesis C-S lyase EgtE from Mycobacterium smegmatis (enzyme, M. smegmatis strain mc2155, UniProt A0R5M7 1-371, looked up)
chain: T1 sequence (A0R5M7 1-371)
modifications: PLP covalently linked to Lys203 via a Schiff base linkage (monomer 1; bond broken in monomer 2 of the MsEgtE-PLP crystal)
notes: EgtE (PLP-dependent C-S lyase), Mycobacterium smegmatis strain mc2155, full-length ORF of msmeg_6246 in pET28a; residues 1-371 described in the structure; Homodimer by crystal structure and size exclusion chromatography; also called MsEgtE; MsEgtE-PLP
B3: MsEgtE (Mycolicibacterium smegmatis MC2 155; R202K) (protein)
chain: T1 sequence (A0R5M7 1-371) with R202K
notes: as for B1
B4: MsEgtE (Mycolicibacterium smegmatis MC2 155; Q183A) (protein)
chain: T1 sequence (A0R5M7 1-371) with Q183A
notes: as for B1
B5: MsEgtE (Mycolicibacterium smegmatis MC2 155; Y106F) (protein)
chain: T1 sequence (A0R5M7 1-371) with Y106F
notes: as for B1

Legend:
MsEgtE [1] = target: T1, MsEgtE; test: X-ray crystal structure, […] Å; format: binding; conditions: active site of MsEgtE-PLP; from soaked sulfoxide 4 (10 mM)
MsEgtE [2] = target: T2, MsEgtE (Mycolicibacterium smegmatis, UniProt A0R5M7, Y48A); test: isothermal titration calorimetry, single injection; format: binding; conditions: 25 °C; 1 mM sulfoxide 4 injected into 20 μM enzyme
T2 construct: gene egtE; full-length ORF, pET28a N-terminal hexa-histidine tag, E. coli BL21 (DE3); homodimer (~76 kDa by SEC, predicted 78 kDa)
T2 sequence (A0R5M7 whole entry Y48A): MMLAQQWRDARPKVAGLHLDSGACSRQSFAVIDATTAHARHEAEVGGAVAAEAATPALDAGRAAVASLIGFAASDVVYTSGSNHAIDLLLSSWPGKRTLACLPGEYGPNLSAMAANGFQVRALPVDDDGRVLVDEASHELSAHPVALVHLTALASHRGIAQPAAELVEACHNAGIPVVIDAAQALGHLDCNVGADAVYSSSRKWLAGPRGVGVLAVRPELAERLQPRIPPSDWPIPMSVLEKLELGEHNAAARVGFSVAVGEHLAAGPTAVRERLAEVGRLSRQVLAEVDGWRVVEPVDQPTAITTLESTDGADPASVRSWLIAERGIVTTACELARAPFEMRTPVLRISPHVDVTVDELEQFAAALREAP

purified protein = substrate: C[N+](C)(C)[C@@H](Cc1cnc([S+]([O-])C[C@H](N)C(=O)O)[nH]1)C(=O)[O-]; test: purified protein; format: biochemical, Mycolicibacterium smegmatis; conditions: 50 mM KPi pH 8.0, 25 °C, PLP-loaded enzyme, 1 mM DTT, 0.13 mM NADH
[3] = target: the molecule itself; test: crystal structure; MsEgtE-PLP binding pyruvate crystal, 2.35 Å, short soak in sulfoxide 4; 0.1 M citric acid pH 6.5, 15% PEG8000, 15% glycol
[4] = target: the molecule itself; test: crystal structure; MsEgtE-PLP crystal, 2.8 Å, two molecules per asymmetric unit; sitting drop at 16 °C, 0.1 M HEPES-Na pH 7.5, 1 M NaCl, 0.1 M LiSO4, 10% PEG1000

Molecule	Km (purified protein) [µM]	kcat (purified protein) [s⁻¹]	also measured
CC(=O)C(=O)O [pyruvate]	–	–	X-ray crystal structure, 2.35 Å (MsEgtE [1]): pyruvate binds in the deep crevice of the active center
C[N+](C)(C)[C@@H](Cc1cnc([S+]([O-])C[C@H](N)C(=O)O)[nH]1)C(=O)[O-] (stereo partly drawn) [compound 4, sulfoxide 4]	–	–	isothermal titration calorimetry, single injection (MsEgtE [2]): Y48A mutant still retains a certain level of substrate binding capability
B1	516.0 ± 122.1	2.08 ± 0.25	–
B2	–	–	stoichiometry N [3]: 4; stoichiometry N [4]: 2
B3	58.5 ± 8.7	0.03 ± 0.01	–
B4	679.7 ± 235.0	0.23 ± 0.04	–
B5	52.1 ± 13.1	0.32 ± 0.02	–
